According to patent US20160185837A1 (Medimmune Limited, priority 2013, published 2016):

Legend:
PK by Activity = test: PK by Activity
Description: Table printed on a drawing sheet, FIG. 3D-F
(§1) Circles: IV injection of 1 mg/kg, squares: subcutaneous injection of 1 mg/kg. Pharmacokinetic parameters Cmax, bioavailability (F %) and half-life T1/2 are compared in panel C.
(§2) Circles: IV injection of 1 mg/kg, squares: subcutaneous injection of 1 mg/kg. Pharmacokinetic parameters Cmax, bioavailability (F %) and half life T112 are compared in panel F.
First reader's note: Panel F of FIG. 3D-F; the pharmacokinetic parameters were derived from plasma levels measured by activity (sheet heading 'PK by Activity').

PK by Fc Detection = test: PK by Fc Detection
Description: Table printed on a drawing sheet, FIG. 3A-C
Title: PK by Fc Detection
as §1, §2
First reader's note: Panel C of FIG. 3A-C; the title 'PK by Fc Detection' is printed over the whole sheet, including plot panels A and B.

[1] = target: T1, human GIP receptor (hGIPr) (Homo sapiens, UniProt P48546); test: BSA-cAMP assay, cells expressing human GIP receptor; assay type: cell-based; details: Batch 1; BSA-cAMP assay; read-out: hGIPr cAMP activity EC50
T1 construct: expressed in transfected cells
T1 sequence (P48546 22-466): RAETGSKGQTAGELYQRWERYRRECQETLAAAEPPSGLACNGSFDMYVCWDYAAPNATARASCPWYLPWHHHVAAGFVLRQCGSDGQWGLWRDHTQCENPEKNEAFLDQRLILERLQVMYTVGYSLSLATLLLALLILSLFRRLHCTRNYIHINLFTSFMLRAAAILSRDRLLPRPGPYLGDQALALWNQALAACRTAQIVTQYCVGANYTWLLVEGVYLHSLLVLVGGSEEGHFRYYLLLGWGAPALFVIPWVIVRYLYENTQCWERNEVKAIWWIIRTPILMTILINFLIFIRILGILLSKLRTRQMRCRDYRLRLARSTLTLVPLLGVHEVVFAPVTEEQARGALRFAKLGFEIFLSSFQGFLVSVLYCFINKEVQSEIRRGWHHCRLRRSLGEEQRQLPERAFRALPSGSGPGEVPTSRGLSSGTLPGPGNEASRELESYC
Description: For human GIPr, two different lines were used, shown as “hGIPr” and “hGIPr (C3)” in Table 11.
(§3) One basic cAMP assays was performed, differing in the medium used for the assay, the “BSA-cAMP assay”:
(§4) BSA-based assay medium: 0.1% bovine serum albumin (BSA) in
(§5) In certain aspects, the assay can also be carried out in medium supplemented with serum albumin that corresponds to the receptor being tested, e.g., human serum albumin for testing cAMP activity at hGIPr or hGLP-1r, rat serum albumin for testing cAMP activity at rGIPr or rGLP-1r, and so on. […] All sample dilutions were made in duplicate.
(§6) A frozen cryo-vial of cells expressing the receptor of interest was thawed rapidly in a water-bath, transferred to pre-warmed assay media and spun at 240×g for 5 minutes. Cells were re-suspended in assay buffer at an optimized concentration (e.g., hGLP-1r and hGIPr cells at 0.5×10^5 cells/ml).
(§7) To this, 5 μL cell suspension was added and the plates incubated at room temperature for 30 minutes.
(§8) cAMP levels were measured using a commercially available cAMP dynamic 2 HTRF kit (Cisbio, Cat #62AM4PEJ), following the two step protocol as per manufacturer's recommendations. In brief; anti-cAMP cryptate (donor fluorophore) and cAMP-d2 (acceptor fluorophore) were made up separately by diluting each 1/20 in conjugate & lysis buffer provided in the kit. 5 μL anti-cAMP cryptate was added to all wells of the assay plate, and 5 μL cAMP-d2 added to all wells except non-specific binding (NSB) wells, to which conjugate and lysis buffer was added. […] Data was transformed to % Delta F as described in manufacturer's guidelines and then transformed to percent activation of maximal native agonist response and analysed by 4-parameter logistic fit to determine EC50 values.
(§9) We used unconstrained 4 parameter logistic fit of data, curve mid-point to determine EC50. This was tested on two occasions, not two batches.

[2] = target: T2, mouse GLP-1 receptor (mGLP-1r) (Mus musculus, UniProt O35659); test: BSA-cAMP assay, cells expressing mouse GLP-1 receptor; assay type: cell-based; details: Batch 1; BSA-cAMP assay; read-out: mGLP1r cAMP activity EC50
T2 construct: expressed in transfected cells; host or cells: HEK293s or CHO cells
T2 sequence (O35659 22-463): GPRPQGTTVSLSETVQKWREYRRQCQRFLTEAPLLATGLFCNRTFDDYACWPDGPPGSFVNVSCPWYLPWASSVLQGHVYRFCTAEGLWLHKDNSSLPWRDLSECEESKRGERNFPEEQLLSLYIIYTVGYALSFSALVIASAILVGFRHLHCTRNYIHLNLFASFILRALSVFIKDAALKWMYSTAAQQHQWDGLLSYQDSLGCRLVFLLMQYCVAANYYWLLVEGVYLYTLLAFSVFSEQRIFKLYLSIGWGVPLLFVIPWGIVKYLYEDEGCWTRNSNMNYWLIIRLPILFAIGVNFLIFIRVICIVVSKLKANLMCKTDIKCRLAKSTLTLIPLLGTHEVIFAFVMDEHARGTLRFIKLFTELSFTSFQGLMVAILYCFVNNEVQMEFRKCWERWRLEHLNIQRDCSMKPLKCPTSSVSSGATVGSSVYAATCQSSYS
Description: as §3, §4, §5, §6, §7, §8, §9
(§10) In order to be able to carry out in vivo studies in rodents, IP088 was tested for potency against the mouse receptors mGIPr and mGLP-1r as well as the rat receptors rGIPr and rGLP-1r, using cells expressing the respective receptors in the cAMP assay described above.

[3] = target: T3, rat GLP-1 receptor (rGLP-1r) (Rattus norvegicus, UniProt P32301); test: BSA-cAMP assay, cells expressing rat GLP-1 receptor; assay type: cell-based; details: Batch 1; BSA-cAMP assay; read-out: rGLP1r cAMP activity EC50
T3 construct: expressed in transfected cells; host or cells: HEK293s or CHO cells
T3 sequence (P32301 22-463): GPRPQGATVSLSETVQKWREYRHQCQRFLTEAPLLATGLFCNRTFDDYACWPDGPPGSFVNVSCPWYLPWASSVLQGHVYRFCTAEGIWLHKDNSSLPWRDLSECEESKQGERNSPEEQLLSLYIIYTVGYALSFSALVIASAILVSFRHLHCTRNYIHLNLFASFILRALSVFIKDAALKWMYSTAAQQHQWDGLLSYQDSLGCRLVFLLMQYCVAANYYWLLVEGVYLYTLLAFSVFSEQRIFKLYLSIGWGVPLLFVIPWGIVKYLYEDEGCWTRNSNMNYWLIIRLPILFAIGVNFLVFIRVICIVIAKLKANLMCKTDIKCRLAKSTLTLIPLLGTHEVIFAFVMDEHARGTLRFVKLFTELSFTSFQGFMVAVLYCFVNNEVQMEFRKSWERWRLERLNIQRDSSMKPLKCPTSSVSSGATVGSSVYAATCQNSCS
Description: as §3, §4, §5, §6, §7, §8, §9, §10

[4] = target: T4, human glucagon receptor (GCGr) (Homo sapiens, UniProt P47871); test: BSA-cAMP assay, cells expressing human glucagon receptor; assay type: cell-based; details: Batch 1, read-out: hGCGr cAMP activity EC50
T4 construct: expressed in transfected cells; host or cells: HEK293s or CHO cells
Description: as §3, §4, §5, §6, §7, §8, §9

rat GIP receptor (rGIPr) = target: T5, rat GIP receptor (rGIPr) (Rattus norvegicus, UniProt P43219); test: BSA-cAMP assay, cells expressing rat GIP receptor; assay type: cell-based; details: Batch 1; BSA-cAMP assay; read-out: rGIPr cAMP activity EC50
T5 construct: expressed in transfected cells; host or cells: HEK293s or CHO cells
T5 sequence (P43219 19-455): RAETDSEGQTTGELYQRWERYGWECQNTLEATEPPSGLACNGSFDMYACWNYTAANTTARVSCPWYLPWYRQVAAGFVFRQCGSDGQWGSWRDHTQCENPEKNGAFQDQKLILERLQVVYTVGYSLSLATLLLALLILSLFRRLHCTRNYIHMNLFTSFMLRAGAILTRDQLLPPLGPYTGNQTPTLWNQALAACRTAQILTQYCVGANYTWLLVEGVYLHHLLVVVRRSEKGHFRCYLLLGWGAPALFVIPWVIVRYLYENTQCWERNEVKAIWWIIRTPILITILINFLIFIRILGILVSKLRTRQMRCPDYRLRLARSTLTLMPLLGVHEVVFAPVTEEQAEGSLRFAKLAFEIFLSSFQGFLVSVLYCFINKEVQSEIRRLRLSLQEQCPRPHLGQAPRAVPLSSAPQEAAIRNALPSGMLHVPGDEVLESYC
Description: as §3, §4, §5, §6, §7, §8, §9, §10

[5] = target: T6, human GLP-1 receptor (hGLP-1r) (Homo sapiens, UniProt P43220); test: BSA-cAMP assay, cells expressing human GLP-1 receptor; assay type: cell-based; details: Batch 1; BSA-cAMP assay; read-out: hGLP1r cAMP activity EC50
T6 construct: expressed in transfected cells
Description: as §3, §4, §5, §6, §7, §8, §9

[6] = target: T7, mouse GIP receptor (mGIPr) (Mus musculus, UniProt Q0P543); test: BSA-cAMP assay, cells expressing mouse GIP receptor; assay type: cell-based; details: Batch 1; BSA-cAMP assay; read-out: mGIPr cAMP activity EC50
T7 construct: expressed in transfected cells; host or cells: HEK293s or CHO cells
T7 sequence (Q0P543 19-460): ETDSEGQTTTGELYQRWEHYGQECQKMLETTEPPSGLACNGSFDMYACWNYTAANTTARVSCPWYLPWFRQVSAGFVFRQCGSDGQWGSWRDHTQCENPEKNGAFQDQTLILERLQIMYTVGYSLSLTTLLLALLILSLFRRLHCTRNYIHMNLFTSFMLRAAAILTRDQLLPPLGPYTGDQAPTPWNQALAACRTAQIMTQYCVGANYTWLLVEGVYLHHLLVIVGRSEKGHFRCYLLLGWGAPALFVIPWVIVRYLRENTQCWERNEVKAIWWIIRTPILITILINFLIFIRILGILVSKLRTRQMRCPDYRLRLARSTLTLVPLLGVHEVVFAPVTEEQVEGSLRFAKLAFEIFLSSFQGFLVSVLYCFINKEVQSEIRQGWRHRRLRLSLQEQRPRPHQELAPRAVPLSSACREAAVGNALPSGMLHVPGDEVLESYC
Description: as §3, §4, §5, §6, §7, §8, §9, §10

T4 sequence (P47871 26-477): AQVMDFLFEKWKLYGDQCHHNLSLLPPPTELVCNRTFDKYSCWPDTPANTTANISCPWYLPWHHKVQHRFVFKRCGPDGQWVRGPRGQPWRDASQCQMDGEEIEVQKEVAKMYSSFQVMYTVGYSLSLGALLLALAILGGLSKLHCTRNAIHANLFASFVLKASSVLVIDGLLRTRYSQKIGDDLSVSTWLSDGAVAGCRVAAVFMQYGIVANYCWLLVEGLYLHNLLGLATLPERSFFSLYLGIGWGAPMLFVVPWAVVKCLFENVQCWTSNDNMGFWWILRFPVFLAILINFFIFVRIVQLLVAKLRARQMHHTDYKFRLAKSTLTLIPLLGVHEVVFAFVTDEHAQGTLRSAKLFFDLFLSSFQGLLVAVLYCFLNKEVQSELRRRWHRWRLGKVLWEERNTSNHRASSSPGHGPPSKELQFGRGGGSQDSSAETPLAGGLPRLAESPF
T6 sequence (P43220 24-463): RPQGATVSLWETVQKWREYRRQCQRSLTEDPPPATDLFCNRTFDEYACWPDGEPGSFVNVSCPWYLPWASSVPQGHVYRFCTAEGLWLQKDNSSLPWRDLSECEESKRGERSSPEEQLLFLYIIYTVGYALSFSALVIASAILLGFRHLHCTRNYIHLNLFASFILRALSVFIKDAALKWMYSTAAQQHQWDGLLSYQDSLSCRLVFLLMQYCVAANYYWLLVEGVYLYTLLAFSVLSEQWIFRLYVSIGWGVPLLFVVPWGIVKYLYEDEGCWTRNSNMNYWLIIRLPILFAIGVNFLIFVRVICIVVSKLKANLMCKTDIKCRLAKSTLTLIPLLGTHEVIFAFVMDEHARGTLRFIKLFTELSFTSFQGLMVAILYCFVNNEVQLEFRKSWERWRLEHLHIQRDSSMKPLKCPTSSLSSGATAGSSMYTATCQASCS

Substance | Cmax (PK by Activity) [nmol/L] | F (%) (PK by Activity) | t½ (PK by Activity) [h] | Cmax (PK by Fc Detection) [µg/mL] | F (%) (PK by Fc Detection) | t½ (PK by Fc Detection) [h] | EC50 [1] [nM] | EC50 [2] [nM] | EC50 [3] [nM] | EC50 [4] [nM] | EC50 (rat GIP receptor (rGIPr)) [nM] | EC50 [5] [nM] | EC50 [6] [nM]
GLP-1a-Fc (HGEGTFTSDVSSYLEEQAAKEFIAWLVKGR; /note=“Description of Artificial Sequence Synthetic GLP-1 Analog polypeptide”) | 24 | 93 | 30 | 8.5 | 59 | 79 | – | – | – | – | – | – | –
IP342 (YSEGTFTSDYSAAAEAAAAAAFAAWLAAAAGGGGGSGGGGSGGGGSGGGGSACPPC) | – | – | – | – | – | – | 4.7 | 670 | 23 | > 3560 | 5.1 | 75 | 43
IP343 (YSEGTFTSDYAAAAERQAIDAFAAWLAAAAGGGGGSGGGGSGGGGSGGGGSA) | – | – | – | – | – | – | 72 | > 2070 | 360 | > 2070 | 110 | 960 | 880
IP359: Fc fusion, IgG1-TM, SEQ ID NO:366; agonist peptide YSEGTFTSDYSKLLEEEAVRLFIEHLLAGG (YSEGTFTSDYSKLLEEEAVRLFIEHLLAGGGGGGSGGGGSGGGGSGGGGSATHTCPPC) | – | – | – | – | – | – | 0.011 | 0.2 | 0.04 | 43 | 0.039 | 0.061 | 8.3
IP368 (YSEGTFTSDYRQAIDRQAIDEFIAWLLKGGGGGGGSGGGGSGGGGSGGGGSACPPC) | – | – | – | – | – | – | 0.2 | > 4860 | 370 | > 4860 | 0.22 | 230 | 1.3
IP380: Fc fusion, IgG1-fusion, SEQ ID NO:376; agonist peptide YSEGTFTSDYSKLLEEEAVRLFIEFLLAGG (YSEGTFTSDYSKLLEEEAVRLFIEFLLAGGGGGGSGGGGSGGGGSGGGGSATHTCPPC) | – | – | – | – | – | – | 0.0084 | 1.2 | 0.031 | 25 | 0.06 | 0.11 | 6.6
IP381: Fc fusion, IgG1-fusion, SEQ ID NO:377; agonist peptide YSEGTFTSDYSKLLEEEAVRLFIEYLLAGG (YSEGTFTSDYSKLLEEEAVRLFIEYLLAGGGGGGSGGGGSGGGGSGGGGSATHTCPPC) | – | – | – | – | – | – | 0.0099 | 0.73 | 0.027 | 18 | 0.045 | 0.091 | 5.4
IP385 (YSEGTFTSDYSIYLDRQAIDEFIAWLLKGGGGGGGSGGGGSGGGGSGGGGSACPPC) | – | – | – | – | – | – | 0.012 | 30 | 0.16 | > 1560 | 1.1 | 0.47 | 18
IP386 (YSEGTFISDYSIAMDKIHQQDFVNWLLAQKGGGGGSGGGGSGGGGSGGGGSACPPC) | – | – | – | – | – | – | 0.0034 | > 16600 | > 16600 | 540 | 0.0085 | > 9130 | 0.03
IP395 (YSEGTFTSDYSKLLERQAIDEFIAHLLKGGGGGGGSGGGGSGGGGSGGGGSACPPC) | – | – | – | – | – | – | 0.012 | 3.8 | 0.016 | 380 | 0.063 | 0.12 | 3.3
